Consider 6 molecules from US20250298032A1 (INSTITUTE FOR RESEARCH IN BIOMEDICINE, published 2025).

Changes are numbered by the printed parent chain.

Experiment [1] deals with T1, CXCL13 N-loop peptide (human, biotin-Ahx at the N-terminus; amidated at the C-terminus).
T1 construct: Synthetic peptide, captured on Neutravidin-coated ELISA plates
T1 peptide: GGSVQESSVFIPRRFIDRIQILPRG
The experiment is described as follows: ELISA, biotinylated CXCL13 N-loop peptide on neutravidin plate, anti-human IgG-HRP, OD450 nm. The protocol: (§1) To evaluate the antibodies' binding to chemokine peptides, 96-well plates (ThermoFisher, 442404) were coated with 50 μl per well of a 2 μg/ml Neutravidin (Life Technologies, 31000) solution in PBS, overnight at room temperature. Plates were washed 4 times with washing buffer (PBS+0.05% Tween-20 [Sigma-Aldrich]) and incubated with 50 μl per well of a 50 nM biotinylated peptide solution in PBS for 1 h at room temperature. After washing 4 times with washing buffer, plates were incubated with 200 μl per well of blocking buffer (PBS+2% BSA+0.05% Tween-20) for 2 h at room temperature. Plates were then washed 4 times with washing buffer, and serial dilutions of monoclonal antibodies or plasma were added in PBS +0.05% Tween-20 and incubated for 1 h at room temperature. To screen for the presence of anti-chemokine IgGs, plasma samples were assayed (unless otherwise stated) at 1:50 starting dilution followed by 3 fourfold serial dilutions (1:200, 1:800, 1:3200). Monoclonal antibodies were tested at 5 μg/ml starting concentration followed by 11 threefold serial dilutions. Plates were subsequently washed 4 times with washing buffer and incubated with anti-human IgG secondary antibody conjugated to horseradish peroxidase (HRP) (GE Healthcare, NA933) at a 1:5000 dilution in PBS+0.05% Tween-20. Finally, after washing 4 times with washing buffer, plates were developed by the addition of 50 μl per well of the HRP substrate TMB (ThermoFisher, 34021) for 9 min. The developing reaction was stopped with 50 μl per well of a 1 M H₂SO₄ solution, and absorbance was measured at 450 nm with an ELISA microplate reader (BioTek) with Gen5 software. A positive control (broadly reactive plasma from donor CLM70) and a negative control (uninfected participant) samples were included in each experiment. The Area Under the Curve (AUC) was obtained from two independent experiments and plotted with GraphPad Prism.

The target in experiment [2] is T2, CCL20 N-loop peptide (human, biotin-Ahx at the N-terminus; amidated at the C-terminus).
T2 construct: Synthetic peptide, captured on Neutravidin-coated ELISA plates
T2 peptide: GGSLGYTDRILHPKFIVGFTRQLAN
The experiment is described as follows: ELISA, biotinylated CCL20 N-loop peptide on neutravidin plate, anti-human IgG-HRP, OD450 nm. The protocol: as §1, with “Plates were subsequently washed 4 times with washing buffer and incubated with anti-human IgG secondary antibody conjugated to horseradish peroxidase (HRP) (GE Healthcare, NA933) at a 1:5000 dilution in PBS+0.05% Tween-20. Finally, after washing 4 times with washing buffer, plates were developed by the addition of 50 μl per well of the HRP substrate TMB (ThermoFisher, 34021) for 9 min.” left out, “A positive control (broadly reactive plasma from donor CLM70) and a negative control (uninfected participant) samples were included in each experiment. The Area Under the Curve (AUC) was obtained from two independent experiments and plotted with GraphPad Prism.” left out
A general note: ELISA stands for enzyme-linked immunosorbent assay.

Experiment [3] addresses T3, CCL2 N-loop peptide (human, biotin-Ahx at the N-terminus; amidated at the C-terminus).
T3 peptide: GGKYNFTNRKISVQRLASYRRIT
The experiment is described as follows: ELISA, biotinylated CCL2 N-loop peptide on neutravidin plate, OD450 nm. The protocol:
as §1, with “Plates were subsequently washed 4 times with washing buffer and incubated with anti-human IgG secondary antibody conjugated to horseradish peroxidase (HRP) (GE Healthcare, NA933) at a 1:5000 dilution in PBS+0.05% Tween-20. Finally, after washing 4 times with washing buffer, plates were developed by the addition of 50 μl per well of the HRP substrate TMB (ThermoFisher, 34021) for 9 min.” left out, “A positive control (broadly reactive plasma from donor CLM70) and a negative control (uninfected participant) samples were included in each experiment. The Area Under the Curve (AUC) was obtained from two independent experiments and plotted with GraphPad Prism.” left out

Experiment [4] concerns the target T4, CCL8 N-loop peptide (human, biotin-Ahx at the N-terminus; amidated at the C-terminus).
T4 construct: Synthetic peptide (GenScript), captured on Neutravidin-coated ELISA plates
T4 peptide: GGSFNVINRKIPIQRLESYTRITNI
In words: ELISA, biotinylated CCL8 N-loop peptide on neutravidin plate, anti-human IgG-HRP, OD450 nm. On the procedure:
as §1

In experiment [5] the target is T5, CCL7 N-loop peptide (human, biotin-Ahx at the N-terminus; amidated at the C-terminus).
T5 peptide: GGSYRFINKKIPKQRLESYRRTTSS
In words: ELISA, biotinylated CCL7 N-loop peptide on neutravidin plate, OD450 nm. The protocol: as §1, with “Plates were subsequently washed 4 times with washing buffer and incubated with anti-human IgG secondary antibody conjugated to horseradish peroxidase (HRP) (GE Healthcare, NA933) at a 1:5000 dilution in PBS+0.05% Tween-20. Finally, after washing 4 times with washing buffer, plates were developed by the addition of 50 μl per well of the HRP substrate TMB (ThermoFisher, 34021) for 9 min.” left out, “A positive control (broadly reactive plasma from donor CLM70) and a negative control (uninfected participant) samples were included in each experiment. The Area Under the Curve (AUC) was obtained from two independent experiments and plotted with GraphPad Prism.” left out

Experiment [6] addresses T6, CCL11 N-loop peptide (human, biotin-Ahx at the N-terminus; amidated at the C-terminus).
T6 peptide: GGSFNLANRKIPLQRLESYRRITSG
In words: ELISA, biotinylated CCL11 N-loop peptide on neutravidin plate, OD450 nm. On the procedure:
as §1, with “Plates were subsequently washed 4 times with washing buffer and incubated with anti-human IgG secondary antibody conjugated to horseradish peroxidase (HRP) (GE Healthcare, NA933) at a 1:5000 dilution in PBS+0.05% Tween-20. Finally, after washing 4 times with washing buffer, plates were developed by the addition of 50 μl per well of the HRP substrate TMB (ThermoFisher, 34021) for 9 min.” left out, “A positive control (broadly reactive plasma from donor CLM70) and a negative control (uninfected participant) samples were included in each experiment. The Area Under the Curve (AUC) was obtained from two independent experiments and plotted with GraphPad Prism.” left out

Experiment [7] deals with T7, CCL13 N-loop peptide (human, biotin-Ahx at the N-terminus; amidated at the C-terminus).
T7 peptide: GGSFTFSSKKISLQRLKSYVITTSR
The experiment is described as follows: ELISA, biotinylated CCL13 N-loop peptide on neutravidin plate, OD450 nm. On the procedure: as §1, with “Plates were subsequently washed 4 times with washing buffer and incubated with anti-human IgG secondary antibody conjugated to horseradish peroxidase (HRP) (GE Healthcare, NA933) at a 1:5000 dilution in PBS+0.05% Tween-20. Finally, after washing 4 times with washing buffer, plates were developed by the addition of 50 μl per well of the HRP substrate TMB (ThermoFisher, 34021) for 9 min.” left out, “A positive control (broadly reactive plasma from donor CLM70) and a negative control (uninfected participant) samples were included in each experiment. The Area Under the Curve (AUC) was obtained from two independent experiments and plotted with GraphPad Prism.” left out

The target in experiment [8] is SARS-CoV-2 Spike (S) protein (SARS-CoV-2, UniProt P0DTC2 14-1208). In words: ELISA on coated Spike protein (FIG. 2E).
Protocol: Plates were washed 4 times with washing buffer (PBS+0.05% Tween-20 [Sigma-Aldrich]) and incubated with 50 μl per well of a 50 nM biotinylated peptide solution in PBS for 1 h at room temperature. After washing 4 times with washing buffer, plates were incubated with 200 μl per well of blocking buffer (PBS+2% BSA+0.05% Tween-20) for 2 h at room temperature. Plates were then washed 4 times with washing buffer, and serial dilutions of monoclonal antibodies or plasma were added in PBS +0.05% Tween-20 and incubated for 1 h at room temperature. […] Monoclonal antibodies were tested at 5 μg/ml starting concentration followed by 11 threefold serial dilutions. Plates were subsequently washed 4 times with washing buffer and incubated with anti-human IgG secondary antibody conjugated to horseradish peroxidase (HRP) (GE Healthcare, NA933) at a 1:5000 dilution in PBS+0.05% Tween-20. […] The developing reaction was stopped with 50 μl per well of a 1 M H₂SO₄ solution, and absorbance was measured at 450 nm with an ELISA microplate reader (BioTek) with Gen5 software. […] The Area Under the Curve (AUC) was obtained from two independent experiments and plotted with GraphPad Prism.
Experiment [9] deals with T5, CCL7 N-loop peptide. The experiment is described as follows: ELISA on biotinylated N-loop peptide (FIG. 2D). The protocol: as §1
Experiment [10] addresses T3, CCL2 N-loop peptide. In words: ELISA on biotinylated N-loop peptide (FIG. 2D). On the procedure: as §1
In experiment [11] the target is T7, CCL13 N-loop peptide. The experiment is described as follows: ELISA on biotinylated N-loop peptide (FIG. 2D). The protocol:
as §1

For experiment [12], the target named is T6, CCL11 N-loop peptide. The experiment is described as follows: ELISA on biotinylated N-loop peptide (FIG. 2D). The protocol:
as §1

B1: aCXCL13.001 (antibody, human IgG1, V domains shown)
VH: QVQLVESGGGLVKPGGSLRLSCAASGFMFSDYYMSWIRQAPGKGLEWISYIGNSDASTFYADSVKGRFAISRDNAKNLLFLQMNSLRAEDTAVYYCARDGYSHSRGYSYGRKDAFDIWGRGTMVTVSS
VL: EIVLTQSPATLSLSPGERATLSCRASQSVSSYLAWYQQKPGQAPRLLIYAASQRATGIPARFSGTGSGTDFTLTISSLEPEDSAVYYCQQRGNWPGTFGQGTKVEIK
notes: also called anti-CXCL13 N-loop antibody
For B1, the binding result in experiment [1] was “binds”.

B2: aCCL20.001 (antibody, V domains shown)
VH: QVQLVQSGAEVKKPGASVKISCKASGYTFTNHYMHWVRQAPGVGLEWMGIVNPSGGNTSYARNFQGRIIMTRDMSTRTIYMELGSLRSEDTAVYYCARDGSHYDDDGGYYGDAFDIWGQGTMVTVSS
VL: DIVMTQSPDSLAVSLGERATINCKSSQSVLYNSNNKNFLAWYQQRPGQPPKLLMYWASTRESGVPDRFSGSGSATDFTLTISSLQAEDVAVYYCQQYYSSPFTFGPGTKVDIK
notes: also called anti-CCL20 N-loop antibody
Turning to B2, in experiment [2], the concentration giving a half-maximal response (EC50 (read off the curve)) (as a rule, the midpoint of the concentration-response curve) is around 40 ng/mL.

B3: aCCL8.001 (antibody, human IgG1, V domains shown)
VH: QVQLQESGPGLVKPAETLSLTCTVSGDSVSSESYFWGWIRQSPRKGLEWLGAVWYNGDTYYNPSVGGRVTISMDTSMNEISLRLSSVTAADTAVYFCATEHCIDEICSPASDSWGQGTLVTVSS
VL: DIVMTQSPDSLAVSLGERATINCKSSQSVFFSSNNENCLAWFQQKPGQPPKLLIHWASTRASGVPDRFSGSGSGTDFTLTISSLQAEDVAVYYCHQYLKAPRTFGQGTKVEIK
notes: kappa (VK4-1); also called VH4-39/VK4-1 antibody; anti-CCL8 antibody
B3: the binding result in [3], in [5], in [6] and in experiment [7] was “no binding (tested: 5000 ng/ml)” throughout. For the same molecule, in experiment [4], the “EC50 (read off the curve)” value is around 10 ng/mL.

B4: aCCL8.003 (antibody, human IgG1, V domains shown)
VH: QLQLQESGPGLVKPSETLSLTCTVSGDSVSSSFYFWGWVRQPPGKGLEWIGSIYYTGDTYYKPSLKSRVTISMNTSKNQFSLRLSSVTAADTAVYYCATEFCTSGICHPASDSWGQGTLVTVSS
VL: B3 VL with F30L, F31L, S33A, E36K, H55Y, A61E, V91I, H95Q, L98Y
notes: also called VH4-39/VK4-1 antibody; anti-CCL8 antibody
For B4, in experiment [4], the “EC50 (read off the curve)” value was around 10 ng/mL. The binding result in experiment [8] is “no binding”; in experiment [9], “no binding (tested: 5 µg/ml starting concentration)”; in [10] it was “no binding (tested: 5 µg/ml starting concentration)”; in experiment [11], “no binding (tested: 5 µg/ml starting concentration)”; in experiment [12], “no binding (tested: 5 µg/ml starting concentration)”.

B5: aCCL8.004 (antibody, human IgG1, V domains shown)
VH: QVQLQESGPGLVKPAETLSLTCIVSGDSVSSPSYFWGWIRQPPGKGLEWIGATWFNGDTYYNPSLQSRVSISMDMSLNRIYLSLNSVTAADTAVYFCATEHCFDEICSPASDSWGQGTLVTVSS
VL: B3 VL with N22S, K24M, H55Y, H95Q
notes: as for B4
Consider B5, for which, in experiment [4], the half-maximal effective concentration (EC50 (read off the curve)) was around 10 ng/mL. Further, the binding result was “no binding” in experiment [8]; “no binding (tested: 5 µg/ml starting concentration)” in [9]; “no binding (tested: 5 µg/ml starting concentration)” in experiment [10]; “no binding (tested: 5 µg/ml starting concentration)” in experiment [11]; “no binding (tested: 5 µg/ml starting concentration)” in experiment [12].

B6: aCCL8.005 (antibody, human IgG1, V domains shown)
VH: B4 VH with S52G, I53T, Y61H, K62N, V69L, N74D, T103I, S104N, H108R
VL: B3 VL with F30L, F31L, E36K, K45R, H55Y, A61E, V91I, H95Q, L98Y
notes: as for B4
B6: the binding result in experiment [3], in experiment [5], in [6] and in experiment [7] was “no binding (tested: 5000 ng/ml)” each time. Further, the “EC50 (read off the curve)” value in [4] is around 10 ng/mL.
